Experimental data as given in patent US9718864B2 (HAINAN UNIVERSITY, dated 2017).
No end group written: not given here.

Experiments:
Test in all cases: cell-based or functional assay
rat α7 nAChR = rat α7 nAChR (rat, UniProt Q05941)
[1] = biological target: rat NMDA receptor NR1-2b/NR2D (rat, UniProt P35439)
[2] = biological target: rat NMDA receptor NR1-2b/NR2A (rat, UniProt P35439)

Binder | Half-blocking dose IC50 of ACh-gated current (rat α7 nAChR) | Half-blocking dose IC50 of NMDA receptor current [1] | Half-blocking dose IC50 of NMDA receptor current [2]
TCRSSGRYCRSPYDRRRRYCRRITDACV (not fully specified; ends and bridges not checked) [αO-conotoxin GeXIVA13] | 4.96 µM | ≥ 10 µM | > 10 µM
TCRSSGRYCRSPYDRRRRYCRRITDACV (not fully specified; ends and bridges not checked) [αO-conotoxin GeXIVA14] |  | ≥ 10 µM | 
